Results reported in PMC5857711.

Biological target: serotonin receptor 1b (5-HT1b), CFP- or YFP-tagged, for FRET (human) (UniProt P28222)
Chain of UniProt P28222 (P28222 whole entry): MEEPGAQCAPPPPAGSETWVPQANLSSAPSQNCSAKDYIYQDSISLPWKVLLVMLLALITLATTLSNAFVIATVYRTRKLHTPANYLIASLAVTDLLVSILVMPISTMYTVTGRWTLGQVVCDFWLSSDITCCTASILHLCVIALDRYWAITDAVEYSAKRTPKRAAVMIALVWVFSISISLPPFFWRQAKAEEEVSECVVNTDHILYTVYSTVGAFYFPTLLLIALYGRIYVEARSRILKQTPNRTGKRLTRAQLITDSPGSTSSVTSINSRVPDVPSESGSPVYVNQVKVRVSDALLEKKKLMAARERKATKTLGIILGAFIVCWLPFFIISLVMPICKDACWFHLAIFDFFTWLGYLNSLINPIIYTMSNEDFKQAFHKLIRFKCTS

Gi/o signaling: reduction of forskolin-induced cAMP (AlphaScreen) by 10 μM 5-HT in HEK293 co-expressing TAAR1 and 5-HT1b (50% for 5-HT1b alone): 40%
Substance: βTAAR1 (TAAR1 with the first nine amino acids of the β2-adrenoreceptor at its N-terminus), CFP- or YFP-tagged, for FRET (from UniProt P07550 1-9)
